The results in this text go back to US20250011363A1, “OPTIMIZED SHORTENED PEPTIDE THAT BINDS TO ACETYLCHOLINE RECEPTOR, AND USE THEREOF” (SKINMED CO., LTD., priority 2021, published 2025).

The target of assay [1] is acetylcholine receptor. The assay can be described thus: SPR, AchR immobilised on chip, peptide 10 uM. In general terms: SPR reads the build-up and loss of mass on a sensor chip optically.
The target in assay [2] is acetylcholine receptor. Nature of the assay: SPR, AchR immobilised on CM5 chip, peptide at 10 uM.

B1: 6mer-1-262 (peptide)
peptide: RKQLQR
With B1, the Binding affinity (RU) in the assay with acetylcholine receptor [1] was 139 RU.

B2: 6mer-1-255 (peptide)
peptide: KKGFQK
Take B2: the Binding affinity (RU) with acetylcholine receptor [1] came to 139 RU.

B3: 6mer-1-252 (peptide)
peptide: RRWIRR
In the assay with acetylcholine receptor [1], B3 showed a Binding affinity (RU) of 131 RU.

B4: 6mer-1-256 (peptide)
peptide: KRVRTK
Regarding B4, in the assay with acetylcholine receptor [1], the Binding affinity (RU) amounted to 125 RU.

B5: 6mer-1-242 (peptide)
peptide: KRQYLK
In the assay with acetylcholine receptor [1], B5 had a Binding affinity (RU) of 148 RU.

B6: 6mer-1-261 (peptide)
peptide: KRWVTR
In turn, B6 returned a Binding affinity (RU) with acetylcholine receptor [1] of 121 RU.

B7: 5mer-1151 (peptide)
peptide: KTNAR
Consider B7, for which the Binding affinity (RU) with acetylcholine receptor [2] was found to be 26 RU.

B8: 6mer-1-263 (peptide)
peptide: RKSYTK
As to B8, the Binding affinity (RU) in the assay with acetylcholine receptor [1] came to 146 RU.

B9: 6mer-1-235 (peptide)
peptide: KKRYCR
In the case of B9, the Binding affinity (RU) in the assay with acetylcholine receptor [1] was 148 RU.

B10: 6mer-1-250 (peptide)
peptide: RRVICR
As to B10, in the assay with acetylcholine receptor [1], the Binding affinity (RU) came out at 142 RU.

B11: 6mer-1-267 (peptide)
peptide: KRRLLR
Consider B11, for which the Binding affinity (RU) with acetylcholine receptor [1] amounted to 139 RU.

B12: 6mer-1-238 (peptide)
peptide: KKGQQK
Molecule B12 came in with a Binding affinity (RU) with acetylcholine receptor [1] of 154 RU.

B13: 6mer-1-264 (peptide)
peptide: RRQYQR
B13: the Binding affinity (RU) in the assay with acetylcholine receptor [1] is 128 RU.

B14: 5mer-849 (peptide)
peptide: KTWMK
In the assay with acetylcholine receptor [2], B14 showed a Binding affinity (RU) of 15 RU.

B15: 6mer-1-254 (peptide)
peptide: RKSLSK
Take B15: the Binding affinity (RU) with acetylcholine receptor [1] is 137 RU.

B16: 6mer-1-228 (peptide)
peptide: KRVIYK
Take B16: in the assay with acetylcholine receptor [1], the Binding affinity (RU) was found to be 139 RU.

B17: 6mer-1-248 (peptide)
peptide: RRLIYK
In the assay with acetylcholine receptor [1], B17 showed a Binding affinity (RU) of 151 RU.

B18: 5mer-850 (peptide)
peptide: KYDIR
In the assay with acetylcholine receptor [2], B18 came in with a Binding affinity (RU) of 13 RU.

B19: 6mer-1-240 (peptide)
peptide: RRSRRR
With B19, the Binding affinity (RU) in the assay with acetylcholine receptor [1] stood at 148 RU.

B20: 6mer-1-237 (peptide)
peptide: RKSRYK
With B20, in the assay with acetylcholine receptor [1], the Binding affinity (RU) worked out at 137 RU.

B21: 6mer-1-243 (peptide)
peptide: KKWYLR
Take B21: the Binding affinity (RU) in the assay with acetylcholine receptor [1] was 136 RU.

B22: 6mer-1-239 (peptide)
peptide: RKVLCR
On to B22, for which, in the assay with acetylcholine receptor [1], the Binding affinity (RU) is 136 RU.

B23: 5mer-853 (peptide)
peptide: RYHIK
Consider B23, for which, in the assay with acetylcholine receptor [2], the Binding affinity (RU) was found to be 13 RU.

B24: 5mer-1152 (peptide)
peptide: KENFK
Regarding B24, the Binding affinity (RU) in the assay with acetylcholine receptor [2] came to 18 RU.

B25: 5mer-1149 (peptide)
peptide: KETDR
B25 displayed a Binding affinity (RU) with acetylcholine receptor [2] of 25 RU.

B26: 6mer-1-232 (peptide)
peptide: RRRICK
On to B26, for which the Binding affinity (RU) with acetylcholine receptor [1] was 146 RU.

B27: 6mer-1-231 (peptide)
peptide: KRQRTK
In turn, B27 came in with a Binding affinity (RU) with acetylcholine receptor [1] of 136 RU.

B28: 6mer-1-265 (peptide)
peptide: RKSVCR
Consider B28, for which, in the assay with acetylcholine receptor [1], the Binding affinity (RU) amounted to 145 RU.

B29: 6mer-1-260 (peptide)
peptide: RKQRTK
On to B29, for which the Binding affinity (RU) with acetylcholine receptor [1] amounted to 141 RU.

B30: 5mer-851 (peptide)
peptide: KMCWK
In turn, B30 yielded a Binding affinity (RU) with acetylcholine receptor [2] of 19 RU.

B31: 6mer-1-247 (peptide)
peptide: KKVRQK
Consider B31, for which the Binding affinity (RU) in the assay with acetylcholine receptor [1] is 122 RU.

B32: 6mer-1-246 (peptide)
peptide: RRLVSR
Regarding B32, the Binding affinity (RU) in the assay with acetylcholine receptor [1] came out at 122 RU.

B33: 6mer-1-259 (peptide)
peptide: KRRYRK
B33: in the assay with acetylcholine receptor [1], the Binding affinity (RU) amounted to 141 RU.

B34: 6mer-1-229 (peptide)
peptide: RRRLLR
In the case of B34, the Binding affinity (RU) with acetylcholine receptor [1] was found to be 153 RU.

B35: 6mer-1-227 (peptide)
peptide: KRLVQK
For B35, the Binding affinity (RU) with acetylcholine receptor [1] is 139 RU.

B36: 6mer-1-241 (peptide)
peptide: RRLYYK
The molecule B36 gave a Binding affinity (RU) in the assay with acetylcholine receptor [1] of 148 RU.

B37: 5mer-1150 (peptide)
peptide: KFTNR
For B37, the Binding affinity (RU) with acetylcholine receptor [2] worked out at 12 RU.

B38: 6mer-1-253 (peptide)
peptide: RRVQLK
B38: the Binding affinity (RU) in the assay with acetylcholine receptor [1] is 145 RU.

B39: 6mer-1-258 (peptide)
peptide: KKLQYK
B39 came in with a Binding affinity (RU) with acetylcholine receptor [1] of 137 RU.

B40: 6mer-1-268 (peptide)
peptide: KRRQSK
As to B40, in the assay with acetylcholine receptor [1], the Binding affinity (RU) is 144 RU.

B41: 6mer-1-245 (peptide)
peptide: RRGFRR
For the molecule B41, the Binding affinity (RU) with acetylcholine receptor [1] was determined as 142 RU.

B42: 5mer-852 (peptide)
peptide: KDSMK
On to B42, for which the Binding affinity (RU) with acetylcholine receptor [2] came to 22 RU.

B43: 6mer-1-266 (peptide)
peptide: KKGRLK
Turning to B43, the Binding affinity (RU) in the assay with acetylcholine receptor [1] came to 144 RU.

B44: 6mer-1-236 (peptide)
peptide: RKLISR
Consider B44, for which the Binding affinity (RU) in the assay with acetylcholine receptor [1] amounted to 151 RU.

B45: 6mer-1-251 (peptide)
peptide: RKVQSK
In the case of B45, the Binding affinity (RU) with acetylcholine receptor [1] amounted to 133 RU.

B46: 6mer-1-257 (peptide)
peptide: RKWVTR
As for B46, in the assay with acetylcholine receptor [1], the Binding affinity (RU) was 124 RU.

B47: 6mer-1-230 (peptide)
peptide: RKGYCK
Take B47: the Binding affinity (RU) with acetylcholine receptor [1] is 128 RU.

B48: 6mer-1-249 (peptide)
peptide: RKGVSR
On to B48, for which, in the assay with acetylcholine receptor [1], the Binding affinity (RU) turned out to be 142 RU.

B49: 6mer-1-233 (peptide)
peptide: KKWQSR
In the assay with acetylcholine receptor [1], B49 had a Binding affinity (RU) of 128 RU.

B50: 6mer-1-244 (peptide)
peptide: RRRVQK
In the assay with acetylcholine receptor [1], B50 yielded a Binding affinity (RU) of 144 RU.

B51: 6mer-1-234 (peptide)
peptide: RRGISR
For B51, the Binding affinity (RU) in the assay with acetylcholine receptor [1] is 142 RU.
